From patent publication US20240238439A1 (HUMMINGBIRD BIOSCIENCE PTE, published 2024)

T1: His-tagged recombinant human FcγRIIA (human, UniProt P12318 34-217, limits assumed)
T1 construct: Captured on a CM5 chip by the Biacore HIS capture kit; also called human FCγRIIA (CD32a); not shown: His tag
T1 sequence (looked up): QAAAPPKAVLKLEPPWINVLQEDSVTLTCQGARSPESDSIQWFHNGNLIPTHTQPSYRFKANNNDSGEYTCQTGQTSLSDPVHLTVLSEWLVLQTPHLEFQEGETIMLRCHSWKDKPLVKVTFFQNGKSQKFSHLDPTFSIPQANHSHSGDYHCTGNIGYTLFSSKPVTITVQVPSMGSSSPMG


How the values were obtained:
Assay in all cases: SPR (Biacore T200), His-captured receptor on CM5 chip, ADC as analyte
[1] = target: T2, His-tagged recombinant human FcγRIA (human, UniProt P12314 16-288, limits assumed)
T2 construct: Captured on a CM5 chip by the Biacore HIS capture kit; also called human FCγRIA (CD64); not shown: His tag
Experimental: (§1) ADCs described in Example 2 were analysed for their ability to bind to human Fcγ receptors by surface plasmon resonance using Biacore.
(§2) Briefly, a Biacore HIS capture kit (Cytivia, Cat. #28995056) was employed to immobilize His-tagged recombinant human Fcγ receptor ligand (FcγRIA, FcγRIIA or FcγRIIIA) onto the surface of a CM5 sensor chip. […] Data capture and analysis were preformed using Biacore T200 according to manufacturer's recommendations for analyzing high-affinity antigen-antibody kinetics. Responses from all steps were reference cell-subtracted, and zero concentration-corrected to normalize for systematic disturbances. The resulting association and dissociation curves were fitted with 1:1 global fitting to obtain values for association rate (ka), dissociation rate (kd), and the equilibrium dissociation constant (KD).

[2] = target: T1, His-tagged recombinant human FcγRIIA
Experimental: as §1, §2

[3] = target: T3, His-tagged recombinant human FcγRIIIA (human, UniProt P08637 17-208)
T3 construct: Captured on a CM5 chip by the Biacore HIS capture kit; also called human FCγRIIIA (CD16a); not shown: His tag
Experimental: as §1, §2

T2 sequence (P12314 16-288 limits assumed): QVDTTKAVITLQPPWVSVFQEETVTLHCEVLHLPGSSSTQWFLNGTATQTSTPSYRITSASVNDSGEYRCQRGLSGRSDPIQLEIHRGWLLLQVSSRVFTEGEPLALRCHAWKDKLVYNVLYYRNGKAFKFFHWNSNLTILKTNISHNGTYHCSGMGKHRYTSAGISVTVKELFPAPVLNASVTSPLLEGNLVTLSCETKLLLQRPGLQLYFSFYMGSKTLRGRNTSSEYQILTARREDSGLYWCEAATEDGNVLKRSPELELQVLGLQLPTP
T3 sequence (P08637 17-208 limits assumed): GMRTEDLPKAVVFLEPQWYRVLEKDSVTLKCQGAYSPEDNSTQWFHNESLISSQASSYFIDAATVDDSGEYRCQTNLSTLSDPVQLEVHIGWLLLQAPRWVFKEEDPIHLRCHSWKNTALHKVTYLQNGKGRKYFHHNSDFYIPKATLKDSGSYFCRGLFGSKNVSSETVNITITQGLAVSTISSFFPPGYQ

binding result [1] | binding result [2] | binding result [3] | Binder
no binding | no binding | no binding | 501c.S8D4 (antibody, human IgG1, kappa, L234A L235A, SYNtecan E (HydraSpace-PEG2-HydraSpace-Val-Ala-PABC linker, exatecan payload) conjugated at the 6-azido-GalNAc residue of the N-glycan of N297 (EU numbering); drug-to-antibody ratio 4) heavy: not shown light: DIQMTQSPSSVSASVGDRVTITCKASQIVGSNVAWYQQKPGKAPEPLIYSASYLYSGVPSRFSGSGSGTDFTLTISSLQPEDFATYYCQQYSSHPLTFGQGTKLEIKRTVAAPSVFIFPPSDEQLKSGTASVVCLLNNFYPREAKVQWKVDNALQSGNSQESVTEQDSKDSTYSLSSTLTLSKADYEKHKVYACEVTHQGLSSPVTKSFNRGEC
no binding | no binding | no binding | 501b.S8D4 (antibody, human IgG1, kappa, L234A L235A, SYNtecan E (HydraSpace-PEG2-HydraSpace-Val-Ala-PABC linker, exatecan payload) conjugated at the 6-azido-GalNAc residue of the N-glycan of N297 (EU numbering); drug-to-antibody ratio 4) heavy: QVQLQESGPGLVKPSQTLSLTCTVSGYSITSGYSWHWIRQHPGKGLEWIGSIRYSGGTDYNPSLKSLVTISADTSKNQFSLKLSSVTAADTAVYYCARMTTAPWYPFDYWGQGTTVTVSSASTKGPSVFPLAPSSKSTSGGTAALGCLVKDYFPEPVTVSWNSGALTSGVHTFPAVLQSSGLYSLSSVVTVPSSSLGTQTYICNVNHKPSNTKVDKKVEPKSCDKTHTCPPCPAPEAAGGPSVFLFPPKPKDTLYITREPEVTCVVVDVSHEDPEVKFNWYVDGVEVHNAKTKPREEQYNSTYRVVSVLTVLHQDWLNGKEYKCKVSNKALPAPIEKTISKAKGQPREPQVYTLPPSRDELTKNQVSLTCLVKGFYPSDIAVEWESNGQPENNYKTTPPVLDSDGSFFLYSKLTVDKSRWQQGNVFSCSVMHEALHNHYTQKSLSLSPGK light: DIQMTQSPSSVSASVGDRVTITCKASQIVGSNVAWYQQKPGKAPEPLIYSASYLYSGVPSRFSGSGSGTDFTLTISSLQPEDFATYYCQQYSSHPLTFGQGTKLEIKRTVAAPSVFIFPPSDEQLKSGTASVVCLLNNFYPREAKVQWKVDNALQSGNSQESVTEQDSKDSTYSLSSTLTLSKADYEKHKVYACEVTHQGLSSPVTKSFNRGEC
